# Reference: the DeepSol protein solubility set
# Test: soluble on expression in E. coli; label from the status in PepcDB or PDB records
row,Sequence,soluble on expression in E. coli
1,MGSDKIHHHHHHMTVNDYALVTGASGFLGSAVVRQALARGWRVRALVRATSPRANLDGLPVEVFEGDMRDPAALTSAMRGVRYLFHVAADYRLWAPDPEEIVRTNVDGTMAVMEAAQEAGVERVVYTSSVATLRVAGASAPVDETAAMTPHEAIGAYKRSKVLAERVVERMVAERGLPAVIVNPSTPIGPRDVRPTPTGRIIVEAATGKIPAFVETGLNLVHVDDVAAGHFQALERGRIGERYILGGDDVMLQQMLRDIADLCGRRPPTVQLPRWPLYPLAHAAEAVARITRKEPFVTVDGLHMSKYRMFFRSDKARQELGYQPRPYIDGLRDALDWFREAGYLR,not soluble
2,MEDYLVKALCYKGSIRAYAISATETVSEAQRRHDTWSSSTAALGRTLIGALLLGATLKGDDKLTVKVQGNGPAGAIIVDSNGRGETKGYIKNPHVSLKLNATGKIDVRGAVGNEGIFTVIKDLGLKETFSGQTPIVSGEIGEDFTYFMAVSEQVPSAIGLGVLVDTDESVKAAGGFMIQVMPGADESTIDFIEQRLAEVPPISQLLENGETPEQVLYRLLGEDEVEILEKMPVQFKCDCSKEKFATALIAVGIDELNAMIDEDHGAEAVCQFCNNKYHYSEEELIELRDEAIRNTKQK,not soluble
3,MSLVRIKDIALKAKVSSATVSRILNEDESLSVAGETRQRVINIAEELGYQTVAKRRKSRGQKQRAQPLIGVLSCLSPDQERQDPYFSSIRKGIEKECFEQEIFITNSIHLGSFQEHIFRELDGVIVIGRVHDEAVKHISGRLEHAVFINHSPDPQAYDSIGIDFESASRQAIDHLFDLGYKRLGYIGGQEKEHTLKDGQSIRRTIEDKRLTAFLESAAPQPEHVLIGEYSMREGYRLMKKAIDQGHLPEAFFIASDSMAIGALKALQEAGLQVPRDTAIVSFNGIEEAEFASTPLTTVKVYTEEMGRTGVKLLLDRLNGRTLPQHVTLPTTLIVRQSCGCTAKEGHHHHHH,soluble
4,RQPSSLPEGLPAPLEKRVKELAQAARAAEGESRQKFFTQDINGILLDIEAQTRELSSQVRSGVYAYLASFLPCSKDALLKRARKLHLYEQGGRLKEPLQKLKEAIGRAMPEQMAKYQDECQAHTQAKVAKMLEEEKDKEQRDRICSDEEEDEEKGGRRIMGPRKKFQWNDEIRELLCQVVKIKLESQDLERNNKAQAWEDCVKGFLDAEVKPLWPKGWMQARTLFKESRRGHGHLTSILAKKKVMAPSKIKVKESSTKPDKKVSVPSGQIGGPIALPSDHQTGGLSIGASSRELPSQASGGLANPPPVNLEDSLDEDLIRNPASSVEAVSKELAALNSRAAGNS,not soluble
5,MSEFSQTALFPSLPRTARGTAVVLGNTPAGDKIQYCNGTSVYTVPVGSLTDTEIYTEHSHQTTVAKTSPSGYYCASGDVHGNVRIWDTTQTTHILKTTIPVFSGPVKDISWDSESKRIAAVGEGRERFGHVFLFDTGTSNGNLTGQARAMNSVDFKPSRPFRIISGSDDNTVAIFEGPPFKFKSTFGEHTKFVHSVRYNPDGSLFASTGGDGTIVLYNGVDGTKTGVFEDDSLKNVAHSGSVFGLTWSPDGTKIASASADKTIKIWNVATLKVEKTIPVGTRIEDQQLGIIWTKQALVSISANGFINFVNPELGSIDQVRYGHNKAITALSSSADGKTLFSADAEGHINSWDISTGISNRVFPDVHATMITGIKTTSKGDLFTVSWDDHLKVVPAGGSGVDSSKAVANKLSSQPLGLAVSADGDIAVAACYKHIAIYSHGKLTEVPISYNSSCVALSNDKQFVAVGGQDSKVHVYKLSGASVSEVKTIVHPAEITSVAFSNNGAFLVATDQSRKVIPYSVANNFELAHTNSWTFHTAKVACVSWSPDNVRLATGSLDNSVIVWNMNKPSDHPIIIKGAHAMSSVNSVIWLNETTIVSAGQDSNIKFWNVPF,soluble
6,MKFGGVLLIVKDINKSKKFYEDVMEQKITLDLGEHVSFENGFGLQSNYKAIIGYDLPIYQQSNNFQLYFEVNDIKQWESKINRIGNIEFLHYIKEYPWGQRTFRFYDFDKNIIEISESMESVIKRLLKQGLALEEISKRTMYPVEFITQFQQLLEHHHHHH,soluble
7,MNIPMYIVDAFTDRPFAGNPAAVCLLPQPVGDEWMQRVAAEMNLSETAFLVPHEGGYRLRWFTPKAEVDLCGHATLASAHVLWERGERRADEAIAFFTNSGVLTAINNDGWIRLDFPNETPVRVESPPAALVGALPAEPLFIGRNRFDYLVEIGSEQEVRRLTPDFRLLQEVDARGIIVTSRSAAEEMDFVSRAFFPALGVPEDPVTGSAHCCLGPYWADKLGKTTLVGYQASARGGIVRVMVSGERVQLEGKAVTVLKGDLAAEAAFGLQPI,not soluble
8,VKVNPSVKPICDKCRLIRRHGRVMVICSDPRHKQRQG,not soluble
9,MQSINLPVDHSKIDANFEGYKVSMNNVHFSSKSLDQNLCLRAPSNEMITLQHMKVFSNDNQLFCDYSKCTDSQQFLYRILDTGHIQAMVYEKKTQIWNTSIVGSIDVGTNASSAFPTNLLFTENNLVVACNGISEITVFLAVSDSNWVKMLEHKVSEQGLSLIEARILNGKLNILAYHVESDDSKKTRSRIHSIRINLDDIDYADSLTVEKSMDLIQNGHFETCTFTNNGEIIFLSSEKPHVEGQQEDMEEKATSGQSKPKPTIEEQSRYLVDIKQLITPFDGDASNYLLFKSTFDYLVHNNHFLEINMKNVALVNALTGDAKQFIVTSNIMEMGYKLTLENLEWTFNRPGFQMRLHSEMLERIKFDENDYSQMETALIKYCSIAREIQLWCGQLFTLFGFHRRITGCDRAQMEHSWEQTGNIIQVAFKLKSEISKEDVKIDTTKTGIRLIVKDLTLLSGKLSGEIDENDVEICADQKTNSLKLKLKSIDDKKWEKLISVEYDTLKSLEDSEIKRTMKGEQVIESDEPMEECDETEGSMAFYWVDQESGKVLKQCDVSGSQVLFTSRQSSTSPALICLRHDVDGLLWSFDESAPSHVATLQAFGYVQASKTSRLWSGCSPNKSLACIVEGNNRVLLYSQKVEVSGSLSNRKTSQTVSHVSKQHLLRVECSDPIRGVQLTDTHLFAATKSHIHVAELNL,not soluble
10,MSLGEKTKLEQIKDNGKLVVGTSAEFPPFEFHKVVDGKDSIKGFDIMLAEEFAKELGVKVEIKDMSFDGLIGALNADQVDIVLAGMSPTPEREKSVDFSELYYLSRNAVIVKDADIDKVKTEDDLKKLRVGVQAGSIQEEYVVNTLKMTTTKSLKAIPDLITELKNGNIDAVVTNEAVSLINVKKYDGIKMANTEVGKDVTEGMAAAIKKSDNNKDFIELLNKKIKELQDGKKIEEFLNEASTEAASEGHHHHHH,soluble
11,MAPQSNNSTTFVSKTQHYLKVKKPLLERQRRARMNKCLDTLKTLVAEFQGDDAILRMDKAEMLEAALVFMRKQVVKQQAPVSPLPMDSFKNGYMNAVSEISRVMACTPAMSVDVGKTVMTHLGVEFQRMLQADQVQTSVTTSTPRPLSPASSGYHSDNEDSQSAASPKPVEETMWRPWLEHHHHHH,not soluble
12,MTEASEINLSDIKGPIDVNTPITNHRTALIQNYSTKPKLTYQTVFGVNGPLVIVHNVKFPMFNEIVKITLPNGQIRMGQVLESSKNKAVVQVFEGTTGVDAKFTTCEFTGDIFRSPVSLDMLGRIFNGSGKPIDKGPPVLPEDYLDINGQPINPFNRIYPEEMIQTGISAIDVMNSIARGQKIPIFSAAGLPHNEIAAQIVRQGGLVQLPGRNNETVNFAIVFAAMGVNMETARFFKQDFEECGSMDNVCLFLNLANDPTIERIITPRIALTAAEFFAYHCGKHVLVVLTDMSSYAEALREISAAREEVPGRRGFPGYMYTDLATIYERAGRVKGREGSITQIPILTMPNNDITHPIPDLTGYITEGQIYIDKQLHKRLIYPPIDVLPSLSRLMKSAVGEGMTREDHSDLSNQLYACYAMGKDVQAMKAVVGVEALSPDDLLYLEFLAKFEKNFIAQGRYENRTIVESLNIGWELLRIFPREMLKRIPETLLEKYYKRKKQ,not soluble
13,MSLSPPGVRLFYDPRGHHAGAINELCWGLEEQGVPCQTITYDGGGDAAALGALAARSSPLRVGIGLSASGEIALTHAQLPADAPLATGHVTDSDDQLRTLGANAGQLVKVLPLSERN,soluble
14,MKKKLLAGAITLLSVATLAACSKGSEGADLISMKGDVITEHQFYEQVKSNPSAQQVLLNMTIQKVFEKQYGSELDDKEVDDTIAEEKKQYGENYQRVLSQAGMTLETRKAQIRTSKLVELAVKKVAEAELTDEAYKKAFDEYTPDVTAQIIRLNNEDKAKEVLEKAKAEGADFAQLAKDNSTDEKTKENGGEITFDSASTEVPEQVKKAAFALDVDGVSDVITATGTQAYSSQYYIVKLTKKTEKSSNIDDYKEKLKTVILTQKQNDSTFVQSIIGKELQAANIKVKDQAFQNIFTQYIGGGDSSSSSSTSNE,soluble
15,MATFNLNGLGTPKSATYDNESAYRELLSRVNNGESIVVSVYTDKDNYPAFGIETKKVARFKVRVNQSLLSLLVGYLNNSTVNEDTVRANEVEPNEEGQDFTTDLFKLLIDEGFTPQIAPLFRTVYGYVNAVFNFPNGRMYFRLEHTDELMDYLADKKLL,not soluble
16,MEEAKNMALLFFMDHLMQKNGRRTIHDLSCQFGARGFSEEMRNAVGTTQEGLTEFLQGHPSLFTVEGDQVILNGHNDLNAKNNPLLQSGIRSRNYEKEAVDFFVTKLTKFGPELQIKSLLGHRSQAAPEVRLVSGRHLKEFCEFLQSQVDYFVVEGDRVRLKNMPEPDENAIEMDDEGRPLAGVKAKQAAVEYLKSVLEQNEDQPIPLDQFYQNFCQRFSHTIRQDVATNPKELLQFLKLNRGLFFIRSNKVSLVKNRLNEDGSENGSDEGEETNNNGMFPLDQSALTRIHFVKALKPAQDLISRLWQDINNMEKKVVGLDLKTVTVGVDGEIFLSLGVIATTSQIGIFDLASSDVIILESGFKGILESEKVVKVIHDARRVASLLAHKYAVHMRNVFDTQVAHSLLQHEKFNKSLNEMRPISFINLQRVYYPQSIMLSDVTPRKMSMCPNWGVRPITEEFQLTIVEEAHCLLSALYQSLSNLIPVHLRGVFEDKCIEVNHPEVLLASPNRPPPQPFISSPYRASTRRDVRNGGSIMQSFSPAPYAAAPRPQMSDACTQTFSTGDIEVLNVFYE,not soluble
17,MGSDKIHHHHHHMARQFIYHMAGLSKTYGNKKILENIHLSFYPDAKIGILGPNGAGKSTILRIMAGIDKEYTGEAWLSEGVRCGYLPQEPFLDASKDVRDNVMEGVADKQAIVERYNELMMNYSEETADESARLQDIIDGQNLWDLESQVEMAMAALGCPPANGDVTKLSGGERRRVALCKLLLSKPDLLLLDEPTNHLDAETTAWLERYLREYSGAVLLVTHDRYFLDNVTGWILELDRGKGIPYEGNYSAYLAAKAKRLAQEGREEAARQRALSREQEWIASSPKGRQAKSKARIKAYDELVQASRERRPGEAQIIIPIGERLGQVVIEVDNLSKAYGERVLIDDLSFKLPAGGIVGVIGANGMGKSTLFKMLTGQEQPDSGQIRIGETAHMSYVDQSRDSLVGDKTVWEEISGGNDVIKLGKYEMNSRAYCGAFNFKGADQQQKVANLSGGQRNRVHLAKLLKEGGNVLLLDEPTNDLDTETLGALEDALENFAGCAVIISHDRMFLDRLATHILAFEGDGHVEWFEGNFAEYEADKVRRFGADSLNLKRVNYKPLTR,not soluble
18,MGSDKIHHHHHHMSKLAAFLGRAIPTHQQKQSSHLGDRTLYVGASDIAGCPRKAALGKQNPTGHDIKTLLRFSRGHAAQAMYADFFRTGGALFEEEVEVRHPAIPEIRCHIDFLFYANRQTKRLHIVEMKSTDGIPDEPYASWVDQLHVQMGLLQLTLDPAVEIGGSILVVDLNAGSYHEFNSYTPNRLVFDQLVEKGKHILAAARGECAPRTEPGILCGYCPFRTGCPSHAVALDLPREILDTGRKYLELNEQKKALENRLDVLKNDILTFADGTFKGASDGILINVTSVADSTTIDSYKLKRNYPDIYDQVTKPKSGYVKLEIKPFTPLAAQAA,not soluble
